From patent US20110311550A1 (Scripps Research, published 2011)
Positions count from the first letter of the chain named.

Key:
[1] = biological target: VSV (control pseudotype virus envelope); experiment: cell-based or functional assay
[2] = biological target: E1E2 (Env) of HCV isolate OH8 (genotype 1b) on HCVpp (hepatitis C virus, isolate OH8); experiment: cell-based or functional assay
[3] = biological target: E1E2 (Env) of HCV isolate UKN2A1.2 (genotype 2a) on HCVpp (hepatitis C virus, isolate UKN2A1.2); experiment: cell-based or functional assay
[4] = biological target: E1E2 (Env) of HCV isolate H (genotype 1a) on HCVpp (hepatitis C virus, isolate H); experiment: cell-based or functional assay
[5] = biological target: E1E2 (Env) of HCV isolate UKN5.15.7 (genotype 5) on HCVpp (hepatitis C virus, isolate UKN5.15.7); experiment: cell-based or functional assay
[6] = biological target: E1E2 (Env) of HCV isolate UKN1B12.16 (genotype 1b) on HCVpp (hepatitis C virus, isolate UKN1B12.16); experiment: cell-based or functional assay
[7] = biological target: E1E2 (Env) of HCV isolate UKN2B1.1 (genotype 2b) on HCVpp (hepatitis C virus, isolate UKN2B1.1); experiment: cell-based or functional assay
[8] = biological target: E1E2 (Env) of HCV isolate J6 (genotype 2a) on HCVpp (hepatitis C virus, isolate J6, UniProt P26660 192-383; P26660 384-750); experiment: cell-based or functional assay
[9] = biological target: E1E2 (Env) of HCV isolate UKN4.21.16 (genotype 4) on HCVpp (hepatitis C virus, isolate UKN4.21.16); experiment: cell-based or functional assay
[10] = biological target: T1, HCV E1E2 complex, isolate H77 (genotype 1a) (hepatitis C virus genotype 1a, isolate …, UniProt P27958 192-383; P27958 384-746); experiment: Fab ELISA on unmasked E1E2
[11] = biological target: T2, HCV E1E2 complex, isolate H77 (genotype 1a) (hepatitis C virus genotype 1a, isolate …, UniProt P27958 192-383; P27958 384-746); experiment: competition ELISA on lectin-captured H77 E1E2; competitor: Fab T1
T2 construct: also called E1E2 (H77); Folded E1E2

[12] = biological target: T2, HCV E1E2 complex, isolate H77 (genotype …); experiment: competition ELISA on lectin-captured H77 E1E2; competitor: Fab Q2
[13] = biological target: T2, HCV E1E2 complex, isolate H77 (genotype …); experiment: competition ELISA on lectin-captured H77 E1E2; competitor: Fab S1
[14] = biological target: T2, HCV E1E2 complex, isolate H77 (genotype …); experiment: competition ELISA on lectin-captured H77 E1E2; competitor: Fab R1
[15] = biological target: T2, HCV E1E2 complex, isolate H77 (genotype …); experiment: competition ELISA on lectin-captured H77 E1E2; competitor: Fab V1
[16] = biological target: T2, HCV E1E2 complex, isolate H77 (genotype …); experiment: competition ELISA on lectin-captured H77 E1E2; competitor: Fab P6
[17] = biological target: T2, HCV E1E2 complex, isolate H77 (genotype …); experiment: competition ELISA on lectin-captured H77 E1E2; competitor: Fab U1
[18] = biological target: T2, HCV E1E2 complex, isolate H77 (genotype …); experiment: competition ELISA on lectin-captured H77 E1E2; competitor: Fab P5
[19] = biological target: T2, HCV E1E2 complex, isolate H77 (genotype …); experiment: competition ELISA on lectin-captured H77 E1E2; competitor: Fab Q1
[20] = biological target: HCV E1E2 complex, isolate HCV-1 (genotype 1a), vaccinia-expressed (hepatitis C virus genotype 1a, isolate …, UniProt P26664 192-383; P26664 384-746); experiment: apparent affinity: half-maximal binding, ELISA on lectin-captured E1E2
[21] = biological target: T1, HCV E1E2 complex, isolate H77 (genotype …); experiment: as above

B1: MAb AR3B (antibody, V domains shown)
VH: LEQSGPEVKKPGSSVKVSCKDSGDTFNEPVTWVRQAPGQGLEWIGGIIPAFGVTKYAQKFQGRVIISADASTATAYLELSSLRSEDTAVYYCAKVGLRGIVMVGGLAMNWLDPWGQGTQVTVSS
VL: not shown
Neutralizing activity (IC50) on control pseudotype virus [1]: > 50 µg/mL
Neutralizing activity (IC50) on HCVpp [2]: 5 µg/mL
Neutralizing activity (IC50) on HCVpp [3]: 5 µg/mL
Neutralizing activity (IC50) on HCVpp [4]: 1 µg/mL
Neutralizing activity (IC50) on HCVpp [5]: 1 µg/mL
Neutralizing activity (IC50) on HCVpp [6]: 1 µg/mL
Neutralizing activity (IC50) on HCVpp [7]: 10 µg/mL
Neutralizing activity (IC50) on HCVpp [8]: 10 µg/mL
Neutralizing activity (IC50) on HCVpp [9]: 1 µg/mL

B2: Fab N3 (Fab, V domains shown)
VH: VQLLEQSGAEVKKPGDSLRISCKMSGDSLVWIGWVRQKPGQGLEWMGIINPGDSATNIYPGDSDTRYGPSFQGQVTISIDKSTSTAYLQWNAVKASDTGIYYCARHVPVPISGTFLWREREMHDLGYFDDWGQGTLVIVSS
VL: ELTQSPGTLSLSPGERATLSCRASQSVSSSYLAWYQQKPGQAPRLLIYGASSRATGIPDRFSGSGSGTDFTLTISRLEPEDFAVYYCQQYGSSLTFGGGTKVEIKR
notes: Soluble Fab
binding result [10]: binds

B3: Fab U1 (Fab, V domains shown)
VH: VQLLEQSGPEVKRPGTSVKMSCKISGGASITQAMSWVRQAPGQGLEWMGGITPIFGTVNYAQKILGRVTITADEDTVSLELSSLKSEDTAVYYCAREVNLKTWNLAHPNVFDVWGQGTMLTVSS
VL: ELTQSPSSLSASVGDRVTITCRASQSISSFLNWYQQKPGKAPKLLIYAASSLQSGVPPRFSGSGSGTDFTLTISSLQPEDFATYYCQQSYSTPRTFGQGTKLEIKR
binding result [10]: binds

B4: MAb AR1A (antibody, V domains shown)
VH: LEQSGAEVKKPGSSVKVSCRASGSPYSSYTITWVRQAPGQGLEWMGGIILMTGKANYAQKFQGRVTITADRATATAYMEMSSLTSDDTAIYYCARDPYVYAGDDVRSLSRWGQGTPVIVSS
VL: not shown
notes: also called IgG1 of Fab B2
residual binding [11]: 80%
residual binding [12]: 78%
residual binding [13]: 69%
residual binding [14]: 100%
residual binding [15]: 58%
residual binding [16]: 82%
residual binding [17]: 55%
residual binding [18]: 87%
residual binding [19]: 79%

B5: Fab T1 (Fab, V domains shown)
VH: EVQLLESGGGLVQPGGSLRLSCAASGFTFSRFWMHWVRQAPGKGLVWVARINSDGSSTTYADSVKGRFTISRDNAKNTLYLQMNSLRDEDTAVYFCARGGDSSSPYYYPMDVWGQGTTVAVSS
VL: not shown
binding result [10]: binds

B6: Fab O1 (Fab, V domains shown)
VH: VQLLEQSGAEVKKAGESVRLSCKASGYRFGDYWIAWVRQLPGRAPEWMGIIYPDDSDTKYSPSFQGQVTISADKSIRTTFLDWGSLKASDTAIYYCARGCLGAKCYYPHYYYGLDVWGQGTTVIVSS
VL: ELTQSPSSLSASVGDRVTITCRATQGIDNYLNWYQQKPGKPPRLLIYGASSLQSGVPSRFSGGGSGTHFTLTITNLQPEDFATYYCQQSYSTPPETFGQGTKVEIKR
notes: Soluble Fab
binding result [10]: binds

B7: Fab S1 (Fab, V domains shown)
VH: VQLLEQSGAEVKKPGTSVKVSCTASGYIFTSFGISWVRQAPGQGLEWMGRIDTYNGKTNYAQKLQGRVTMTTDTYTSTAYMELRSLTSDDTAVYYCARDDCRSSTCYLAQHNWQAYYHDSWGQGTLVTVSS
VL: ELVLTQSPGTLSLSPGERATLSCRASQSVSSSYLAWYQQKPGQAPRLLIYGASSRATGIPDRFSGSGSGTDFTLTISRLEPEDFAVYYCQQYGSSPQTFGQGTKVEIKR
binding result [10]: binds

B8: Fab P3 (Fab, V domains shown)
VH: EVQLLESGGGVVQPGKSLRLSCAVSGFTLNTFAMHWVRQVPGKGLEWVALTSHDGSRQDYADSVRGRFTISRDNSKSMVFLLMNSLRAEDTAVYYCVRGGPAYYTYNDVLTGYAYVVGDFWGQGTLVTVSS
VL: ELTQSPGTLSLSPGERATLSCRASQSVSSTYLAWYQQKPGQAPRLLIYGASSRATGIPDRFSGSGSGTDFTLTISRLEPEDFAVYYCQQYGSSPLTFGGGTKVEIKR
binding result [10]: binds

B9: Fab P1 (Fab, V domains shown)
VH: EVQLLESGGGVVQPGGSLRLSCAASGFTFTSFTMHWVRQAPGKGLEWVALISHDGSNKDYADSVRGRFTVSRDNSKKMVYLQMSSLRPDDAAVYYCARGGPAYYTYSDTLTGYHNVVGDYWGQGTLVTVSS
VL: ELTQSPGTLSLSPGERATLSCRASQVRGFLAWFQQKPGQAPRLLIYGASNRAPGIPDRFSGSGSGTDFTLTISRLEPEDFAVYYCQQYGDSPPITFGQGTRLEIKR
notes: Soluble Fab
binding result [10]: binds

B10: Fab P1a (Fab, V domains shown)
VH: B9 VH
VL: ELTQSPGTLSLSPGERATLSCRTSQSVSSTYLAWYQQKPGQPPRLLIYGASNRAPGIPDRFSGSGSGTDFTLTISRLEPEDFAVYYCQQYGDSPPITFGQGTRLDIKR
binding result [10]: binds

B11: Fab N1 (Fab, V domains shown)
VH: VQLLEQSGPEVKKPGDSLRISCKMSGDSLVTTWIGWVRQKPGQGLEWMGIINPGDSSTNIYPGDSATRYGPSFQGQVTISIDKSTSTAYLQWNAVKPSDTGIYYCARHVPVPISGTFLWREREMHDFGYFDDWGQGTLVIVSS
VL: ELTQSPGTLSLSPGERATLSCRASQSVSSSYLAWYQQKPGQAPRLLIYGASNRAAGIPDRFSGSGSGADFTLTISRLEPEDFAVYYCQQYGSSLITFGQGTRLEIKR
notes: Soluble Fab
binding result [10]: binds

B12: Fab N2 (Fab, V domains shown)
VH: B11 VH with A94T
VL: ELTQSPGTLSLFPGERATLSCRASQSILGRYLAWYQQKGGRAPRLLIFGASKRATGIPDRFSGSGSGTDFTLTIGRLEPEDFAVYYCQHYGSSITFGQGTRLDIKR
notes: Soluble Fab
binding result [10]: binds

B13: MAb AR1B (IgG1 from Fab D1) (antibody, V domains shown)
VH: LESGGGLVQPGGSLRLSCEASGYYFSSFAMSWVRQTPGKGLEWVSSIAGGTLGRTSYRDSVKGRFTISRDNSKNTVFLHMNNLRPEDTAVYYCAKDPLLFAGGPNWFDHWGQGTLVTVSS
VL: not shown
EC50 [20]: 0.4 nM
EC50 [21]: 0.6 nM

B14: MAb AR3C (antibody, V domains shown)
VH: LEQSGAEVKKPGSSVKVSCETSGGTLDNYALNWVRQAPGQGLEWIGGVVPLFGTTRNAQKFQGRVTISDDKSTGTGHMELRSLRSEDTAVYYCVRSVTPRYCGGGFCYGEFDYWGQGTLVTVSS
VL: ELTQSPATLSVSPGERATLSCRASQSVSSNLAWYQQKPGQAPRLLIYGASTRATGIPARFSGSGSGTEFTLTVSRLEPEDSAVYFCQQYYRSPLTFGGGTKVEIKR
notes: also called IgG1 of Fab H3
residual binding [11]: 105%
residual binding [12]: 75%
residual binding [13]: 149%
residual binding [14]: 163%
residual binding [15]: 82%
residual binding [16]: 103%
residual binding [18]: 117%
residual binding [19]: 97%

B15: MAb AR2A (IgG1 from Fab G) (antibody, V domains shown)
VH: LEQSGAEMKKPGASLKVSCKTSGYTFDDYGVTWVRQAPGQGLEWMGWISAYSGNTFYARKFQGRVTMTTDPSTRTAYMELRSLRSDDTAVYFCARDRGLAINGVVFPYFGLDVWGQGTTVTVSS
VL: ELTQSPVSLPVTPGEPASISCRSSQSLLHSNGNHYLDWYLQKPGQSPQLLMYLGSNRASGVPDRFSGSGSGTDFTLKISRVEAEDVGVYYCMQGLQTPWTFGQGTKVEIKR
notes: also called G IgG
EC50 [20]: 3.1 nM
EC50 [21]: 1.6 nM
